For experiment [1], the target named is CD40-Fc recombinant protein (human) (UniProt P25942). Kind of experiment: flow cytometry, CD40-Fc staining of transduced T cells at day 13; control CAR without LACO.
In experiment [2] the target is T1, CD40-Fc recombinant protein (human, UniProt P25942 21-193).
T1 construct: also called CD40-Fc protein; CD40-Fc antigen; not shown: Fc part; detected with anti-human IgG Fc antibody
The experiment is described as follows: flow cytometry, CD40-Fc staining of transduced T cells at day 13. The source says:
Lentivirus-based CART cells were generated using the following procedures: T cells were isolated from PBMC and activated by anti-CD3/CD28 beads (T cell:beads=1:3). […] At day 13, the CAR expression was detected using anti-CD27 antibody, and the expression of LACO was detected using CD40-Fc (FIG. 42A-42B and Table 10). Generally, the transduction efficiency was between 30% to 50%.
(In general: In flow cytometry, cells or beads pass a laser one at a time.)

B1: CD27-CAR (CD27z) (protein)
chain: ATPAPKSCPERHYWAQGKLCCQMCEPGTFLVKDCDQHRKAAQCDPCIPGVSFSPDHHTRPHCESCRHCNSGLLVRNCTITANAECACRNGWQCRDKECTECDPLPNPSLTARSSQALSPHPQPTHLPYVSEMLEARTAGHMQTLADFRQLPARTLSTHWPPQRSLCSSDFIRILVIFSGMFLVFTLAGALFLHQRRKYRSNKGESPVEPAEPCRYSCPREEEGSTIPIQEDYRKPEPACSPRVKFSRSADAPAYQQGQNQLYNELNLGRREEYDVLDKRRGRDPEMGGKPRRKNPQEGLYNELQKDKMAEAYSEIGMKGERRRGKGHDGLYQGLSTATKDTYDALHMQALPPR
Regarding B1, in experiment [1], the LACO % (cells positive in CD40-Fc staining) was 2.9% and the LACO/MFI (CD40-Fc staining) was determined as 44.3 MFI.

B2: LACO A409-9.3h11 (of CD27z-9-9.3) (bispecific antibody)
chain: QAVLTQPPSASGAPGQRVSISCSGGSSNIGSHTVNWYQQLPGAAPRLLMFSNYQRPSGVPDRFSASKSGTSASLAISGLRSEDEADYYCAAWDGTLKGYVFGTGTKVTVLGGGGSGGGGSGGGGSEVQLVESGGGVVLPGRSLRLSCAASGFTLRSYGMHWVRQATGKGLEWVSAIGTAGDTYYPGSVKGRFTISRENAKNSLYLQMNSLRAGDTAVYYCARADRLGGYGMDVWGQGTTVTVSSGGGGSQVKLQESGPGLVKPSETLSITCTVSGFSLSDYGVHWVRQSPGKGLEWLGVIWAGGGTNYNSALMSRKTISKDNSKSQVFLKMSSLTAADTAVYYCARDKGYSYYYSMDYWGQGTTVTVSSGGGGSGGGGSGGGGSDIQLTQSPSSLSVSVGDRVTISCRASESVEYYVTSLMQWYQQKPGQAPKLLIFAASNVESGVPSRFSGSGSGTNFTLTISSVQEEDFAMYFCQQSRKVPYTFGGGTKLEIK
notes: Anti-CD40 scFv 409 joined to anti-CD28 scFv 9.3h11, co-expressed with CD27z through T2A
Consider B2, for which, in experiment [2], the “LACO % (cells positive in CD40-Fc staining)” value turned out to be 27.3% and the “LACO/MFI (CD40-Fc staining)” value was 127 MFI.

B3: LACO A4025-9.3h11 (of CD27z-25-9.3) (bispecific antibody)
chain: QSALTQPASVSGSPGQSITVSCTGTRSDIGDYNYVSWYQQHPGKAPKLIIYDVSSRPSGVSNRYSGSKSGNTASLTISGLQAEDEADYYCSSYTSSSTLVFGGGTKVTVLGGGGSGGGGSGGGGSQVQLVQSGGGLVQPGGSLRLSCAASGFTFSSNWMSWVRQAPGKGLEWVANINQDGSEKYYVDSVKGRFTISRDNAKNSLYLQLNSLRAEDTAEYYCARGGYRYAYWGQGTLVTVSSGGGGSQVKLQESGPGLVKPSETLSITCTVSGFSLSDYGVHWVRQSPGKGLEWLGVIWAGGGTNYNSALMSRKTISKDNSKSQVFLKMSSLTAADTAVYYCARDKGYSYYYSMDYWGQGTTVTVSSGGGGSGGGGSGGGGSDIQLTQSPSSLSVSVGDRVTISCRASESVEYYVTSLMQWYQQKPGQAPKLLIFAASNVESGVPSRFSGSGSGTNFTLTISSVQEEDFAMYFCQQSRKVPYTFGGGTKLEIK
notes: Anti-CD40 scFv 4025 joined to anti-CD28 scFv 9.3h11, co-expressed with CD27z through T2A
Turning to B3, in experiment [2], the “LACO % (cells positive in CD40-Fc staining)” value is 51.4% and the “LACO/MFI (CD40-Fc staining)” value turned out to be 221 MFI.
